16 molecules from US20150344570A1 (published 2015) can be followed below.

For experiment [1], the target named is T1, FcγRIIb extracellular domain with C-terminal His tag (human, UniProt P31994 43-217).
T1 construct: extracellular domain; also called FcgRIIb; 2b
T1 sequence (looked up): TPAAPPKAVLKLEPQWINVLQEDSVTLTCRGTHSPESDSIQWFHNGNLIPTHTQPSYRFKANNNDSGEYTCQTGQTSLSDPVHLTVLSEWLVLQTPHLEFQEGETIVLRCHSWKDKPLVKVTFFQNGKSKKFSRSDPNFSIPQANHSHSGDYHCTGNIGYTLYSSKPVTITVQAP
The experiment can be described thus: SPR (Biacore), antibody captured via antigen peptide, FcγR as analyte; relative binding. The method, then: (§1) The heterodimerized antibodies He Abs in which one of the H chains was introduced with an alteration were assayed for their binding activities to each activating FcγR and inhibitory FcγR according to the method described in Example 4. […] The activating FcγRs in FIGS. 26, 27, 28, and 29 are FcγRIa, FcγRIIa (R), FcγRIIa (H), and FcγRIIIa, respectively.
(§2) Analysis of interaction between objective antibody and the FcγR was carried out using Biacore T100 (GE Healthcare). HBS-EP+ (GE Healthcare) was used as the running buffer, and the measurement temperature was set to 25° C. Chips produced by immobilizing the antigen peptide by the amine coupling method to a Series S Sencor Chip CM5 (GE Healthcare), or alternatively, chips produced by allowing preliminarily biotinylated antigen peptides to interact with and immobilize onto a Series S Sensor Chip SA (certified) (GE Healthcare) were used. Antibodies of interest were captured onto an antigen peptide-immobilized chip, and allowed to interact to each FcγR diluted with running buffer. To regenerate and repeatedly use the chip, the antibodies captured on the chip were washed off by reacting 10 mM glycine-HCl, pH 1.5.
Background: Surface plasmon resonance follows binding to a sensor surface in real time, without labels.

Experiment [2] concerns the target T2, FcγRIa extracellular domain with C-terminal His tag (human, UniProt P12314 16-292).
T2 construct: extracellular domain; also called FcgRI; 1a
The experiment is described as above. The method, then:
as §1, §2
T2 sequence (P12314 16-292): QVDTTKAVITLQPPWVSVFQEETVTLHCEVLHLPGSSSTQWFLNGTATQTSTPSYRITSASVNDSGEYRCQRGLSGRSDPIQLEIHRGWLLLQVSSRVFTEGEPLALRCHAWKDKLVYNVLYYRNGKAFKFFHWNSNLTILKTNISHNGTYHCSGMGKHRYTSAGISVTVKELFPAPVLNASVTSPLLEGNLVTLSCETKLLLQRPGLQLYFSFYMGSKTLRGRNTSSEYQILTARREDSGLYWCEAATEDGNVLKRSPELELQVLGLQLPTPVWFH

Experiment [3] concerns the target T2, FcγRIa extracellular domain with …. In words: SPR (Biacore); He/Con_1a divided by He/Con_2b (FcγRIa binding over FcγRIIb binding). The procedure:
as §1, §2

Experiment [4] deals with T3, FcγRIa extracellular domain with C-terminal His tag (human, UniProt P12314 16-292).
T3 construct: extracellular domain; Soluble receptor used as analyte in Biacore; also called FcgRI; FcgRIa
The experiment can be described thus: SPR Biacore, antibody captured on antigen-peptide chip, FcγR as analyte.
T3 sequence (P12314 16-292): as above

The target in experiment [5] is T4, FcγRIIb extracellular domain with C-terminal His tag (human, UniProt P31994 43-217).
T4 construct: extracellular domain; Soluble receptor used as analyte in Biacore; also called FcgRIIb; CD32B
T4 sequence (looked up): T1 sequence (looked up)
Described as above.

B1: GpH7-A5/GpH7-B3 variant S298_03V/GpL16-k0 (antibody, human IgG1, kappa)
heavy 1: not shown
heavy 2: not shown
light: DIVMTQSPLSLPVTPGEPASISCQASESLVHSNRNTYLHWYLQKPGQSPQLLIYKVSNRFSGVPDRFSGSGSGTDFTLKISRVEAEDVGVYYCSQNTHVPPTFGQGTKVEIERTVAAPSVFIFPPSDEQLKSGTASVVCLLNNFYPREAKVQWKVDNALQSGNSQESVTEQDSKDSTYSLSSTLTLSKADYEKHKVYACEVTHQGLSSPVTKSFNRGEC
notes: Heterodimerized anti-glypican-3 IgG1; alteration only in the GpH7-B3 chain, EU numbering; also called He Ab
Consider B1, for which the He/Con_2b in experiment [1] was 64.5 % of GpH7-A5/GpH7-B3/GpL16-k0 (=100). For the same molecule, in experiment [2], the He/Con_1a is 110 % of GpH7-A5/GpH7-B3/GpL16-k0 (=100). Further, the “He_1a/2b (Ia/IIb)” value in experiment [3] stood at 1.7 ratio.

B2: GpH7-A5/GpH7-B3 variant Q295_15Y/GpL16-k0 (antibody, human IgG1, kappa)
heavy 1: not shown
heavy 2: not shown
light: B1 light
notes: as for B1
On to B2, for which the He/Con_2b in experiment [1] is 65.4 % of GpH7-A5/GpH7-B3/GpL16-k0 (=100). The He/Con_1a in experiment [2] is 102 % of GpH7-A5/GpH7-B3/GpL16-k0 (=100). For the same molecule, the “He_1a/2b (Ia/IIb)” value in experiment [3] stood at 1.56 ratio.

B3: GpH7-A5/GpH7-B3 variant S298_02A/GpL16-k0 (antibody, human IgG1, kappa)
heavy 1: not shown
heavy 2: not shown
light: B1 light
notes: Heterodimerized anti-glypican-3 IgG1; S298A (EU numbering) only in the GpH7-B3 chain; also called He Ab; GpH7-A5/GpH7-B3-15-02A/GpL16-k0
In the case of B3, the He/Con_2b in experiment [1] was 73.4 % of GpH7-A5/GpH7-B3/GpL16-k0 (=100). In addition, in experiment [2], the He/Con_1a is 107 % of GpH7-A5/GpH7-B3/GpL16-k0 (=100). The “He_1a/2b (Ia/IIb)” value in experiment [3] was 1.45 ratio.

B4: GpH7-A5/GpH7-B3 variant Q295_03V/GpL16-k0 (antibody, human IgG1, kappa)
heavy 1: not shown
heavy 2: not shown
light: B1 light
notes: as for B1
Take B4: the He/Con_2b in experiment [1] was 75.7 % of GpH7-A5/GpH7-B3/GpL16-k0 (=100). Moreover, the He/Con_1a in experiment [2] was 104 % of GpH7-A5/GpH7-B3/GpL16-k0 (=100). In addition, the “He_1a/2b (Ia/IIb)” value in experiment [3] worked out at 1.37 ratio.

B5: GpH7-A5/GpH7-B3 variant Y296_02A/GpL16-k0 (antibody, human IgG1, kappa)
heavy 1: not shown
heavy 2: not shown
light: B1 light
notes: as for B1
For the molecule B5, the He/Con_2b in experiment [1] was 82 % of GpH7-A5/GpH7-B3/GpL16-k0 (=100). Moreover, the He/Con_1a in experiment [2] was 103 % of GpH7-A5/GpH7-B3/GpL16-k0 (=100). For the same molecule, the “He_1a/2b (Ia/IIb)” value in experiment [3] was determined as 1.26 ratio.

B6: GpH7-A5/GpH7-B3 variant Q295_04F/GpL16-k0 (antibody, human IgG1, kappa)
heavy 1: not shown
heavy 2: not shown
light: B1 light
notes: as for B1
Turning to B6, the He/Con_2b in experiment [1] is 64.7 % of GpH7-A5/GpH7-B3/GpL16-k0 (=100). The He/Con_1a in experiment [2] is 102 % of GpH7-A5/GpH7-B3/GpL16-k0 (=100). Further, the “He_1a/2b (Ia/IIb)” value in experiment [3] turned out to be 1.58 ratio.

B7: GpH7-A5/GpH7-B3 variant V266_15Y/GpL16-k0 (antibody, human IgG1, kappa)
heavy 1: not shown
heavy 2: not shown
light: B1 light
notes: Heterodimerized anti-glypican-3 IgG1; mutation in the GpH7-B3 chain only; also called He Ab V266Y
For B7, the He/Con_1a in experiment [4] is 93.3 relative, GpH7-A5/GpH7-B3/GpL16-k0 = 100. In experiment [5], the He/Con_2b is 49.4 relative, GpH7-A5/GpH7-B3/GpL16-k0 = 100.

B8: GpH7-A5/GpH7-B3 variant Q295_05P/GpL16-k0 (antibody, human IgG1, kappa)
heavy 1: not shown
heavy 2: not shown
light: B1 light
notes: as for B1
Turning to B8, the He/Con_2b in experiment [1] was 67.5 % of GpH7-A5/GpH7-B3/GpL16-k0 (=100). For the same molecule, the He/Con_1a in experiment [2] is 103 % of GpH7-A5/GpH7-B3/GpL16-k0 (=100). For the same molecule, the “He_1a/2b (Ia/IIb)” value in experiment [3] amounted to 1.53 ratio.

B9: GpH7-A5/GpH7-B3 variant D270_20W/GpL16-k0 (antibody, human IgG1, kappa)
heavy 1: not shown
heavy 2: not shown
light: B1 light
notes: as for B1
With B9, the He/Con_2b in experiment [1] was 34.7 % of GpH7-A5/GpH7-B3/GpL16-k0 (=100). In experiment [2], the He/Con_1a was 68 % of GpH7-A5/GpH7-B3/GpL16-k0 (=100). For the same molecule, the “He_1a/2b (Ia/IIb)” value in experiment [3] amounted to 1.96 ratio.

B10: GpH7-A5/GpH7-B3 variant V266_20W/GpL16-k0 (antibody, human IgG1, kappa)
heavy 1: not shown
heavy 2: not shown
light: B1 light
notes: Heterodimerized anti-glypican-3 IgG1; mutation in the GpH7-B3 chain only; also called He Ab V266W
B10: in experiment [4], the He/Con_1a is 91.4 relative, GpH7-A5/GpH7-B3/GpL16-k0 = 100. In addition, in experiment [5], the He/Con_2b is 71.9 relative, GpH7-A5/GpH7-B3/GpL16-k0 = 100.

B11: GpH7-A5/GpH7-B3 variant Q295_11K/GpL16-k0 (antibody, human IgG1, kappa)
heavy 1: not shown
heavy 2: not shown
light: B1 light
notes: as for B1
In the case of B11, the He/Con_2b in experiment [1] is 70.4 % of GpH7-A5/GpH7-B3/GpL16-k0 (=100). In addition, the He/Con_1a in experiment [2] is 101 % of GpH7-A5/GpH7-B3/GpL16-k0 (=100). In experiment [3], the “He_1a/2b (Ia/IIb)” value stood at 1.44 ratio.

B12: GpH7-A5/GpH7-B3 variant Q295_18N/GpL16-k0 (antibody, human IgG1, kappa)
heavy 1: not shown
heavy 2: not shown
light: B1 light
notes: as for B1
As to B12, the He/Con_2b in experiment [1] was 64.9 % of GpH7-A5/GpH7-B3/GpL16-k0 (=100). In addition, the He/Con_1a in experiment [2] is 102 % of GpH7-A5/GpH7-B3/GpL16-k0 (=100). For the same molecule, the “He_1a/2b (Ia/IIb)” value in experiment [3] is 1.58 ratio.

B13: GpH7-A5/GpH7-B3 variant S267_18N/GpL16-k0 (antibody, human IgG1, kappa)
heavy 1: not shown
heavy 2: not shown
light: B1 light
notes: Heterodimerized anti-glypican-3 IgG1; mutation in the GpH7-B3 chain only; also called He Ab S267N
With B13, in experiment [4], the He/Con_1a is 102 relative, GpH7-A5/GpH7-B3/GpL16-k0 = 100. The He/Con_2b in experiment [5] was 47.7 relative, GpH7-A5/GpH7-B3/GpL16-k0 = 100.

B14: GpH7-A5/GpH7-B3 variant Q295_14T/GpL16-k0 (antibody, human IgG1, kappa)
heavy 1: not shown
heavy 2: not shown
light: B1 light
notes: as for B1
B14: the He/Con_2b in experiment [1] is 66.8 % of GpH7-A5/GpH7-B3/GpL16-k0 (=100). In experiment [2], the He/Con_1a is 103 % of GpH7-A5/GpH7-B3/GpL16-k0 (=100). For the same molecule, the “He_1a/2b (Ia/IIb)” value in experiment [3] turned out to be 1.54 ratio.

B15: GpH7-A5/GpH7-B3 variant S267_16H/GpL16-k0 (antibody, human IgG1, kappa)
heavy 1: not shown
heavy 2: not shown
light: B1 light
notes: Heterodimerized anti-glypican-3 IgG1; mutation in the GpH7-B3 chain only; also called He Ab S267H
Regarding B15, the He/Con_1a in experiment [4] is 100 relative, GpH7-A5/GpH7-B3/GpL16-k0 = 100. In experiment [5], the He/Con_2b is 65.9 relative, GpH7-A5/GpH7-B3/GpL16-k0 = 100.

B16: GpH7-A5/GpH7-B3 variant Q295_20W/GpL16-k0 (antibody, human IgG1, kappa)
heavy 1: not shown
heavy 2: not shown
light: B1 light
notes: as for B1
For B16, the He/Con_2b in experiment [1] was 44.4 % of GpH7-A5/GpH7-B3/GpL16-k0 (=100). Besides, the He/Con_1a in experiment [2] is 93.7 % of GpH7-A5/GpH7-B3/GpL16-k0 (=100). In addition, in experiment [3], the “He_1a/2b (Ia/IIb)” value turned out to be 2.11 ratio.
